Measurements reported in patent US20100160262.

Biological target: enzymatically [3H] acetylated histone H3 peptide (amino acids 1-24) (UniProt P68431)

## human SIRT2 with a C-terminal FLAG tag
  standard histone deacetylase assay (radioactive, H3 peptide substrate): These enzymes also deacetylate histones as determined in a standard histone deacetylase assay
